Results: PMC8557876

Assay: immunofluorescence colocalisation with ER marker PDI (PCC)
Details: glycan lost; control: wild-type hACE2, DMSO

In the case of “human ACE2 (hACE2): N90Q/N322Q/N546Q/N53Q/N103Q”, the localisation_or_trafficking is reported as “changes”.
